According to patent US20130309230A1 (published 2013):

Target: T1, UC4F10-11 hamster anti-mouse CTLA4 antibody
T1 construct: also called mouse anti-CTLA4 antibody (clone UC4 F10-11); anti-CTLA4
Assay: bacterial display / FACS screening with labelled anti-CTLA4 antibody
Experimental: Subsequent rounds of enrichment were carried out using FACS. For the initial round of FACS, bacteria were sorted using biotinylated target (5 nM) and secondary labeling step with streptavidin phycoerythrin. […] Relative affinity and off-rate screening of individual clones were performed using a ficin digested Dylight-labeled Fab antibody fragment to reduce avidity effects of the bivalent antibody due to the expression of multiple peptides on the bacterial surface. As an additional test of target specificity, individual clones were screened for binding in the presence of 20 uM E. Coli depleted IgG as a competitor.

T1 sequence (VH, as listed by the source limits assumed, chain 1 of 2): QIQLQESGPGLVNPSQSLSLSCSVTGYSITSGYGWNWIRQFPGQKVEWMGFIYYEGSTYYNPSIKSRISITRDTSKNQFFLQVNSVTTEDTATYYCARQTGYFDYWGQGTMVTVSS
T1 sequence (VL, as listed by the source limits assumed, chain 2 of 2): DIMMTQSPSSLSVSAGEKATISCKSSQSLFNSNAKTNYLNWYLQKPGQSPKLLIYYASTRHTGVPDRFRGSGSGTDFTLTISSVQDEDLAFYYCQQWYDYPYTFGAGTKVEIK

- binding result: no binding
B1: Negative control (does not bind anti-CTLA4) (peptide)
peptide: PCSEWQSMVQPRCYY
notes: The printed peptide has A where the printed DNA encodes Q; also called MMneg; negative control MM
